Test results from patent US20210380703A1 (RIGEL PHARMACEUTICALS, published 2021).

Experiments:
[1] = biological target: T1, biotinylated goat anti-human kappa light chain; experiment: ELISA, positive control
T1 construct: positive control of the ELISA
Procedure, shortened: (§1)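 Binding signal was read by ELISA after ACVR2A-specific monoclonal antibodies were tested against human ACVR2A and mouse ACVR2A, with human Fc as the negative control.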

mouse ACVR2A = biological target: T2, mouse ACVR2A (mouse, UniProt P27038 20-135, limits assumed); experiment: ELISA
T2 construct: coated antigen of the initial ELISA
Procedure, shortened: as §1

human ACVR2A = biological target: T3, human ACVR2A (human, UniProt P27037 20-135, limits assumed); experiment: ELISA
T3 construct: coated antigen of the initial ELISA; also called activin receptor, type II A
Procedure, shortened: as §1
Further: test concentration or dose not given here.

T2 sequence (P27038 20-135 limits assumed): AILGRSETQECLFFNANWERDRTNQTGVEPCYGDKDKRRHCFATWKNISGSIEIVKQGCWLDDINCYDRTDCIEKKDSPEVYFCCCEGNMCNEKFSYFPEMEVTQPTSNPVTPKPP
T3 sequence (P27037 20-135 limits assumed): as the sequence (P27038 20-135 limits assumed) above, with R20K, I73V counted along it

Row | optical density [1] [OD] | optical density (mouse ACVR2A) [OD] | optical density (human ACVR2A) [OD] | Binder
1 | 2.97 | 3.64 | 3.58 | 374_A09 (antibody, V domains shown, Group III) VH: EVQLLESGGGLVQPGGSLRLSCAASGFTFSSYSMNWVRQAPGKGLEWVSSINYNGGYKGYADSVKGRFTISRDNSKNTLYLQMNSLRAEDTAVYYCARGANWHDTHLDYWGQGTLVTVSS VL: DIQMTQSPSSLSASVGDRVTITCRASQSILTYVNWYQQKPGKAPKLLIYAATSLASGVPSRFSGSGSGTDFTLTISSLQPEDFATYYCQQSYDSPLTFGGGTKVEIK
2 | 3.22 | 3.64 | 3.79 | 374_G03 (antibody, V domains shown, Group III) VH: EVQLLESGGGLVQPGGSLRLSCAASGFTFSDYSMNWVRQAPGKGLEWVSGINYNGGYTSYADSVKGRFTISRDNSKNTLYLQMNSLRAEDTAVYYCARGANWHDTALDYWGQGTLVTVSS VL: DIQMTQSPSSLSASVGDRVTITCRASQSISSYLNWYQQKPGKAPKLVIYAATSRASGVPSRFSGSGSGTDFTLTISSLQPEDFATYYCQQSDDTPLTFGGGTKVEIK
3 | 3.12 | 3.67 | 3.78 | 374_D06 (antibody, V domains shown, Group III) VH: EVQLLESGGGLVQPGGSLRLSCAASGFTFSSYSMNWVRQAPGKGLEWVSGINYNGGYTSYADSVKGRFTISRDNSKNTLYLQMNSLRAEDTAVYYCARGANWHDTALDYWGQGTLVTVSS VL: DIQMTQSPSSLSASVGDRVTITCRASQSILSYVNWYQQKPGKAPKLVIYAATSRASGVPSRFSGSGSGTDFTLTISSLQPEDFATYYCQQSYDSPLTFGGGTKVEIK
4 | 3.18 | 3.7 | 3.72 | 374_F06 (antibody, V domains shown, Group III) VH: EVQLLESGGGLVQPGGSLRLSCAASGFTFSSYSMNWVRQAPGKGLEWVSGINYNGGYTSYADSVKGRFTISRDNSKNTLYLQMNSLRAEDTAVYYCARGANWHDTALDYWGQGTLVTVSS VL: DIQMTQSPSSLSASVGDRVTITCRASQSIISYVNWYQQKPGKAPKLVIYAATSLHSGVPSRFSGSGSGTDFTLTISSLQPEDFATYYCQQSYSTPLTFGGGTKVEIK
5 | 3.08 | 2.93 | 2.69 | 374_C01 (antibody, V domains shown, Group III) VH: EVQLLESGGGLVQPGGSLRLSCAASGFTFDSYGMNWVRQAPGKGLEWVSGINYNSGYKSYADSVKGRFTISRDNSKNTLYLQMNSLRAEDTAVYYCARGANWHDTALDYWGQGTLVTVSS VL: DIQMTQSPSSLSASVGDRVTITCRASQSILTYLNWYQQKPGKAPKLLIYAATSRASGVPSRFSGSGSGTDFTLTISSLQPEDFATYYCQQSYETPLTFGGGTKVEIK
6 | 3.38 | 3.77 | 3.74 | 374_E10 (antibody, V domains shown, Group III) VH: EVQLLESGGGLVQPGGSLRLSCAASGFTFSSYSMNWVRQAPGKGLEWVSGINYNGGYKSYADSVKGRFTISRDNSKNTLYLQMNSLRAEDTAVYYCARGANWHDTALDYWGQGTLVTVSS VL: DIQMTQSPSSLSASVGDRVTITCRASQSILSYLNWYQQKPGKAPKLLIYAATSRHSGVPSRFSGSGSGTDFTLTISSLQPEDFATYYCQQSYDSPLTFGGGTKVEIK
7 | 3.18 | 3.68 | 3.67 | 374_F08 (antibody, V domains shown, Group III) VH: EVQLLESGGGLVQPGGSLRLSCAASGFTFDSYSMNWVRQAPGKGLEWVSGINYNGGYKSYADSVKGRFTISRDNSKNTLYLQMNSLRAEDTAVYYCARGANWHDTALDYWGQGTLVTVSS VL: DIQMTQSPSSLSASVGDRVTITCRASQSILTYVNWYQQKPGKAPKLVIYAVTSRASGVPSRFSGSGSGTDFTLTISSLQPEDFATYYCQQSYDTPLTFGGGTKVEIK
8 | 3.21 | 3.54 | 3.47 | 374_F07 (antibody, V domains shown, Group III) VH: EVQLLESGGGLVQPGGSLRLSCAASGFTFDSYSMNWVRQAPGKGLEWVASINYNGGYTGYADSVKGRFTISRDNSKNTLYLQMNSLRAEDTAVYYCARGANWHDTHLDYWGQGTLVTVSS VL: DIQMTQSPSSLSASVGDRVTITCRASQSILSYLNWYQQKPGKAPKLVIYAVTSLASGVPSRFSGSGSGTDFTLTISSLQPEDFATYYCQQSYESPLTFGGGTKVEIK
9 | 3.15 | 3.33 | 3.67 | 374_C12 (antibody, V domains shown, Group III) VH: EVQLLESGGGLVQPGGSLRLSCAASGFTFSSYSMNWVRQAPGKGLEWVAGINYNGGYKSYADSVKGRFTISRDNSKNTLYLQMNSLRAEDTAVYYCARGANWHDTALDYWGQGTLVTVSS VL: DIQMTQSPSSLSASVGDRVTITCRASQSILTYLNWYQQKPGKAPKLVIYAATSRASGVPSRFSGSGSGTDFTLTISSLQPEDFATYYCQQSDNSPLTFGGGTKVEIK
10 | 3.16 | 3.65 | 3.68 | 374_B05 (antibody, V domains shown, Group III) VH: EVQLLESGGGLVQPGGSLRLSCAASGFTFDSYSMNWVRQAPGKGLEWVSGINYNSGYTSYADSVKGRFTISRDNSKNTLYLQMNSLRAEDTAVYYCARGANWHDTALDYWGQGTLVTVSS VL: DIQMTQSPSSLSASVGDRVTITCRASQSIVSYLNWYQQKPGKAPKLLIYAATSRHSGVPSRFSGSGSGTDFTLTISSLQPEDFATYYCQQSYESPLTFGGGTKVEIK
11 | 3.07 | 3.7 | 3.69 | 374_B03 (antibody, V domains shown, Group III) VH: EVQLLESGGGLVQPGGSLRLSCAASGFTFDSYSMNWVRQAPGKGLEWVSGINYNGGYTSYADSVKGRFTISRDNSKNTLYLQMNSLRAEDTAVYYCARGANWHDTALDYWGQGTLVTVSS VL: DIQMTQSPSSLSASVGDRVTITCRASQSILTYLNWYQQKPGKAPKLVIYAATSRASGVPSRFSGSGSGTDFTLTISSLQPEDFATYYCQQSYDSPLTFGGGTKVEIK

Continued, binder first:

Row | Binder | optical density [1] [OD] | optical density (mouse ACVR2A) [OD] | optical density (human ACVR2A) [OD]
12 | 374_D10 (antibody, V domains shown, Group III) VH: EVQLLESGGGLVQPGGSLRLSCAASGFTFSSYGMHWVRQAPGKGLEWVASINYNGGYTSYADSVKGRFTISRDNSKNTLYLQMNSLRAEDTAVYYCARGANWHDTHLDYWGQGTLVTVSS VL: DIQMTQSPSSLSASVGDRVTITCRASQSILTYVNWYQQKPGKAPKLLIYAATSRASGVPSRFSGSGSGTDFTLTISSLQPEDFATYYCQQSYDNPLTFGGGTKVEIK | 3.27 | 3.64 | 3.56
13 | 374_C09 (antibody, V domains shown, Group III) VH: EVQLLESGGGLVQPGGSLRLSCAASGFTFDSYGMNWVRQAPGKGLEWVSSINYNGGYKGYADSVKGRFTISRDNSKNTLYLQMNSLRAEDTAVYYCARGANWHDTHLDYWGQGTLVTVSS VL: DIQMTQSPSSLSASVGDRVTITCRASQSIVSYLNWYQQKPGKAPKLVIYAATSRASGVPSRFSGSGSGTDFTLTISSLQPEDFATYYCQQSYELPLTFGGGTKVEIK | 3.14 | 3.51 | 3.43
14 | 374_B10 (antibody, V domains shown, Group III) VH: EVQLLESGGGLVQPGGSLRLSCAASGFTFSSYSMNWVRQAPGKGLEWVSSINYNSGYTSYADSVKGRFTISRDNSKNTLYLQMNSLRAEDTAVYYCARGANWHDTHLDYWGQGTLVTVSS VL: DIQMTQSPSSLSASVGDRVTITCRASQSILTYVNWYQQKPGKAPKLVIYAATSLASGVPSRFSGSGSGTDFTLTISSLQPEDFATYYCQQSYDTPLTFGGGTKVEIK | 3 | 3.69 | 3.71
15 | 374_D05 (antibody, V domains shown, Group III) VH: EVQLLESGGGLVQPGGSLRLSCAASGFTFDSYSMNWVRQAPGKGLEWVSGINYNSGYTGYADSVKGRFTISRDNSKNTLYLQMNSLRAEDTAVYYCARGANWHDTHLDYWGQGTLVTVSS VL: DIQMTQSPSSLSASVGDRVTITCRASQSILTYLNWYQQKPGKAPKLLIYAATSRASGVPSRFSGSGSGTDFTLTISSLQPEDFATYYCQQSYDTPLTFGGGTKVEIK | 3.15 | 3.56 | 3.43
16 | 374_E12 (antibody, V domains shown, Group III) VH: EVQLLESGGGLVQPGGSLRLSCAASGFTFSSYSMNWVRQAPGKGLEWVSGINYNGGYKSYADSVKGRFTISRDNSKNTLYLQMNSLRAEDTAVYYCARGANWHDTALDYWGQGTLVTVSS VL: DIQMTQSPSSLSASVGDRVTITCRASQSILSYLNWYQQKPGKAPKLVIYAATSRASGVPSRFSGSGSGTDFTLTISSLQPEDFATYYCQQSYDNPLTFGGGTKVEIK | 3.29 | 3.28 | 3.61
17 | 374_D07 (antibody, V domains shown, Group III) VH: EVQLLESGGGLVQPGGSLRLSCAASGFTFDSYSMNWVRQAPGKGLEWVSGINYNSGYKSYADSVKGRFTISRDNSKNTLYLQMNSLRAEDTAVYYCARGANWHDTALDYWGQGTLVTVSS VL: DIQMTQSPSSLSASVGDRVTITCRASQSIVSYLNWYQQKPGKAPKLVIYAATSLASGVPSRFSGSGSGTDFTLTISSLQPEDFATYYCQQSYNSPLTFGGGTKVEIK | 3.26 | 3.68 | 3.71
18 | 374_B08 (antibody, V domains shown, Group III) VH: EVQLLESGGGLVQPGGSLRLSCAASGFTFDSYSMNWVRQAPGKGLEWVAGINYNGGYTSYADSVKGRFTISRDNSKNTLYLQMNSLRAEDTAVYYCARGANWHDTALDYWGQGTLVTVSS VL: DIQMTQSPSSLSASVGDRVTITCRASQSIVSYVNWYQQKPGKAPKLLIYAATSRHSGVPSRFSGSGSGTDFTLTISSLQPEDFATYYCQQSYELPLTFGGGTKVEIK | 3.12 | 3.63 | 3.6
19 | 374_D03 (antibody, V domains shown, Group III) VH: EVQLLESGGGLVQPGGSLRLSCAASGFTFDSYSMNWVRQAPGKGLEWVAGINYNGGYKSYADSVKGRFTISRDNSKNTLYLQMNSLRAEDTAVYYCARGANWHDTHLDYWGQGTLVTVSS VL: DIQMTQSPSSLSASVGDRVTITCRASQSIVTYLNWYQQKPGKAPKLLIYAATSRASGVPSRFSGSGSGTDFTLTISSLQPEDFATYYCQQSYDTPLTFGGGTKVEIK | 3.02 | 3.48 | 3.3
